Laboratory results as given in US6896881.

Tests used:
[1] = molecular target: human EGF receptor on CHO-hEGFr cells (human) (UniProt P00533); experiment: flow cytometry on CHO-hEGFr cells; 3.9 is the secondary antibody alone
[2] = molecular target: human IGF1 receptor on 3T3-hIGF1r cells (human) (UniProt P08069); experiment: flow cytometry on 3T3-hIGF1r cells; 5.7 is the secondary antibody alone
UniProt P08069, sequence (P08069 31-1367): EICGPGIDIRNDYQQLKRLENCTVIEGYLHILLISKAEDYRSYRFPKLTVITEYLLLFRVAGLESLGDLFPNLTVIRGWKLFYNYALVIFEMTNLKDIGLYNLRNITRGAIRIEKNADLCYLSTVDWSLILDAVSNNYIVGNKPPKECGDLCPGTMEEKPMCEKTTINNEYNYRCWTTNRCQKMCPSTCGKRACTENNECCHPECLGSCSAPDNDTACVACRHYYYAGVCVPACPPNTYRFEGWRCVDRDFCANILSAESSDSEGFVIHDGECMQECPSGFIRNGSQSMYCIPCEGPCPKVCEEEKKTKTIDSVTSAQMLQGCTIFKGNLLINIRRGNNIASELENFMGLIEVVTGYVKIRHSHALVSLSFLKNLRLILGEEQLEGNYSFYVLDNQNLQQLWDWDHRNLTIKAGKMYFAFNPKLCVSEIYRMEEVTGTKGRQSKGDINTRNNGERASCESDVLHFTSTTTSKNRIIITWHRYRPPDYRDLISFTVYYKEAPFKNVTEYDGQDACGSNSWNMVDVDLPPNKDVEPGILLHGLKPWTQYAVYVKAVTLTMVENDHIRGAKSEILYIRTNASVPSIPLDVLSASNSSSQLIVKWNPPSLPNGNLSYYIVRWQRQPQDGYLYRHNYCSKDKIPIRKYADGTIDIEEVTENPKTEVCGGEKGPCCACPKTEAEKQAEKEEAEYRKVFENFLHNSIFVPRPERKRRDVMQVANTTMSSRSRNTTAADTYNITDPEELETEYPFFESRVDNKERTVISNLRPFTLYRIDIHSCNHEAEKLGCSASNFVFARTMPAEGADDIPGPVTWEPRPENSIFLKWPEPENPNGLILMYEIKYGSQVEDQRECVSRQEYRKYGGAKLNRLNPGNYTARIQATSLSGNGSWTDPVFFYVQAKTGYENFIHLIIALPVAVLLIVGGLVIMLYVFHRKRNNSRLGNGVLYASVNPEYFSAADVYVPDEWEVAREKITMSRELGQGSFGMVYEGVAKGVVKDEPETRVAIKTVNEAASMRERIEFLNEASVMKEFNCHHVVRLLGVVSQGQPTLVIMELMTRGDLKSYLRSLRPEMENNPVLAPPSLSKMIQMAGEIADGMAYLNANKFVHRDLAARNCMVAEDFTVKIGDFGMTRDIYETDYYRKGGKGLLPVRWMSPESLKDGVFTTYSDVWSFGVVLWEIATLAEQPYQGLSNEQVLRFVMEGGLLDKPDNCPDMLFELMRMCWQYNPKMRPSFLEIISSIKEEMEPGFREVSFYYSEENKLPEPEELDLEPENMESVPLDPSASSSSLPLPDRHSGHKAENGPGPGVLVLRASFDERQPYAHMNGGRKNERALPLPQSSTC

Row | Substance | mean fluorescence [1] | mean fluorescence [2]
1 | monoclonal anti-hEGFr antibody clone 528 (Santa Cruz, sc-120) | 466 | 
2 | monoclonal anti-hIGF1r antibody clone 33255.111 (R&D Systems, MAB391) |  | 251
